Tested on: VchCAST TnsB transposase (Tn6677; assayed with TnsA-TnsC and TniQ-Cascade) (Vibrio cholerae)
Assay: cell_activity
Conditions: T-RL; for binding signal: no IPTG

Sequence: TGTTGATACAACCATAAAAGGATTATTACACCCATTAATTGATAATTATCACACCCA (double strand) [Right end ORF2a]
- binding signal (log2 fold vs WT) (second replicate -1.82): -2.22

Sequence: TGTTGATACAACCATCAAATGGTAATTACACCCATAAATTGATAATTATCACACCCA (double strand) [Right end ORF3a]
- binding signal (log2 fold vs WT) (second replicate -0.05): -0.64

Sequence: TGTTGATACAACCATTAAATGATAATTCCACCCATAATTTGATAATTATCACACCCA (double strand) [Right end ORF3b]
- binding signal (log2 fold vs WT) (second replicate -0.65): -0.84

Sequence: TGTTGATACAACCATTAAATGGTAATTCCACCCAAATATTGATAATTATCACACCCA (double strand) [Right end ORF3c]
- binding signal (log2 fold vs WT) (second replicate -1.89): -2.49

Sequence: TTTTGTGTTGAAACAACCATAAAGTGATAACAACGAATCAATTAAAATCATAGGCTTAATCGAAAAACAACCATATATTGATATCTCATAAAACAACCATAAGTTGATATTTTGGTGAAAAGGATATTCCAACCTTCATAGTTTAGTAAGAA (double strand) [Left end hyperactive 4669]
- binding signal: 1.69 fold vs WT

Sequence: TTTTGTGTTGAAACAACCATAAAGTGATAACAACGAATCAATTAAAATCATAGGCTTAATCGAAAAACAACCATATCTTGATATCGCACAAAACAACCATAAGTTGATATTTTGGTGAAAAGGATATTCCAACCTTCATAGTTTAGTAAGAA (double strand) [Left end hyperactive 4672]
- binding signal: 1.54 fold vs WT

Sequence: TTTTGTGTTGAAACAACCATAAAGTGATAACAACGAATCAATTAAAATCATAGGCTTAATCGAAAAACAACCATATCTTGATATCGCATAAAACAACCATAAGTTGATATTTTTGTGAATAGGATATTCCAACCTTCATAGTTTAGTAAGAA (double strand) [Left end hyperactive 4670]
- binding signal: 1.67 fold vs WT

Sequence: TTTTGTGTTGAAACAACCATAAAGTGATATTTACGAATCAATTAAAATCATAGGCTTAATCGAAAAACAACCATATCTTGATATCGCATAAAACAACCATAAGTTGATATTTTGGTGAAAAGGATATTCCAACCTTCATAGTTTAGTAAGAA (double strand) [Left end hyperactive 4667]
- binding signal: 2.07 fold vs WT

Sequence: TTTTGTGTTGATGCAACCATAAAGTGATAACAACGAATCAATTAAAATCATAGGCTTAATCGAAAAACAACCATATCTTGATATCGCATAAAACAACCATAAGTTGATATTTTGGTGAAAAGGATATTCCAACCTTCATAGTTTAGTAAGAA (double strand) [Left end hyperactive 4671]
- binding signal: 1.55 fold vs WT
